Assay [1] has as its target T1, C-NAP1 amino acids 1000-1300 (two-hybrid bait, fused to the Gal4 DNA binding domain) (yeast, UniProt P04386 1-147; Q9BV73 1000-1300).
T1 construct: range 1-147;range 1000-1300; Bait was expressed in yeast as a C-terminal fusion to Gal4 DBD 1-147 from vector pGBTQ
Description: yeast two-hybrid, bait C-NAP1 AA 1000-1300, prey AA 184-246. The source says:
(§1) A total human brain (person) cDNA library cloned into the yeast expression vector pACT2 was purchased from Clontech (human brain […] cDNA, cat. #HL4004AH), transformed into the yeast strain J692 (genotype of this strain: Mat α, ade2, his3, leu2, trp1, URA3::GAL1-lacZ LYS2::GAL1-HIS3 gal4del ga18Odel cyhR2), and selected for the ability to drive leucine synthesis. In these yeast cells, each cDNA is expressed as a fusion protein with the transcription activation domain of the transcription factor Gal4 (amino acids 768 to 881) and a 9 amino acid hemagglutinin epitope tag. J693 cells (Mat a type) expressing the bait were then mated with J692 cells […] expressing proteins from the brain library. The resulting diploid yeast cells expressing proteins interacting with the bait protein were selected for the ability to synthesize tryptophan, leucine, histidine, and β-galactosidase. DNA was prepared from each clone, transformed by electroporation into E. coli strain KC8 (Clontech KC8 electrocompetent cells, cat. #C2023-1), and the cells were selected on ampicillin-containing plates in the absence of either tryptophane (selection for the bait plasmid) or leucine (selection for the brain library plasmid). DNA for both plasmids was prepared and sequenced by di-deoxynucleotide chain termination method. […]

Assay [2] deals with T2, C-NAP1 amino acids 1-300 (two-hybrid bait, fused to the Gal4 DNA binding domain) (yeast, UniProt P04386 1-147; Q9BV73 1-300).
T2 construct: range 1-147;range 1-300; Bait cDNA was made by PCR from brain cDNA; It was expressed in yeast as a C-terminal fusion to Gal4 DBD 1-147 from vector pGBTQ
Description: yeast two-hybrid, bait C-NAP1 AA 1-300, prey AA 2-76.
Excerpt: as §1

Assay [3] addresses T1, C-NAP1 amino acids 1000-1300 …. Description: yeast two-hybrid, bait C-NAP1 AA 1000-1300, prey AA 7-283.
Excerpt: as §1

For assay [4] the target is unchanged. The experiment in a line: yeast two-hybrid, C-NAP1 fragment as Gal4 DBD bait, human brain library prey. The source says: In these yeast cells, the bait is produced as a C-terminal fusion protein with the DNA binding domain of the transcription factor Gal4 (amino acids 1 to 147). A total human brain (person) cDNA library cloned into the yeast expression vector pACT2 was purchased from Clontech (human brain […] cDNA, cat. #HL4004AH), transformed into the yeast strain J692 (genotype of this strain: Mat α, ade2, his3, leu2, trp1, URA3::GAL1-lacZ LYS2::GAL1-HIS3 gal4del ga18Odel cyhR2), and selected for the ability to drive leucine synthesis. In these yeast cells, each cDNA is expressed as a fusion protein with the transcription activation domain of the transcription factor Gal4 (amino acids 768 to 881) and a 9 amino acid hemagglutinin epitope tag. J693 cells (Mat a type) expressing the bait were then mated with J692 cells (Mat a type) expressing proteins from the brain library. The resulting diploid yeast cells expressing proteins interacting with the bait protein were selected for the ability to synthesize tryptophan, leucine, histidine, and β-galactosidase. DNA was prepared from each clone, transformed by electroporation into E. coli strain KC8 (Clontech KC8 electrocompetent cells, cat. #C2023-1), and the cells were selected on ampicillin-containing plates in the absence of either tryptophane (selection for the bait plasmid) or leucine (selection for the brain library plasmid). […]

Assay [5] deals with T3, C-NAP1 amino acids 250-550 (two-hybrid bait, fused to the Gal4 DNA binding domain) (yeast, UniProt P04386 1-147; Q9BV73 250-550).
T3 construct: range 1-147;range 250-550; Bait was expressed in yeast as a C-terminal fusion to Gal4 DBD 1-147 from vector pGBTQ
Description: yeast two-hybrid, bait C-NAP1 AA 250-550, prey AA 1314-1575.
Excerpt: as §1

B1: BAP31 amino acids 184-246 (two-hybrid prey clone, fused to the Gal4 activation domain) (other, yeast;human, UniProt P04386 768-881, looked up, not shown: small tags and cut ends)
chain: ANFNQSGNIADSSLSFTFTNSSNGPNLITTQTNSQALSQPIASSNVHDNFMNNEITASKIDDGNNSKPLSPGWTDQTAYNAFGITTGMFNTTTMDDVYNYLFDDEDTPPNPKKELKADLQKLKDELASTKQKLEKAENQVLAMRKQSEGLTKEYDRLLEEHAKLQAAVDGPMDKKEE
notes: range 768-881;range 184-246; The printed GenBank number 'U5211' looks truncated
For B1, the binding result in assay [1] is “binds”.

B2: HSBP1 amino acids 2-76 (two-hybrid prey clone, fused to the Gal4 activation domain) (other, yeast;human, UniProt P04386 768-881, looked up, not shown: small tags and cut ends)
chain: ANFNQSGNIADSSLSFTFTNSSNGPNLITTQTNSQALSQPIASSNVHDNFMNNEITASKIDDGNNSKPLSPGWTDQTAYNAFGITTGMFNTTTMDDVYNYLFDDEDTPPNPKKEAETDPKTVQDLTSVVQTLLQQMQDKFQTMSDQIIGRIDDMSSRIDDLEKNIADLMTQAGVEELESENKIPATQKS
notes: range 768-881;range 2-76
Take B2: the binding result in assay [2] is on record as “binds”.

B3: KIAA0174 amino acids 7-283 (two-hybrid prey clone, fused to the Gal4 activation domain) (other, yeast;human, UniProt P04386 768-881, looked up, not shown: small tags and cut ends)
chain: ANFNQSGNIADSSLSFTFTNSSNGPNLITTQTNSQALSQPIASSNVHDNFMNNEITASKIDDGNNSKPLSPGWTDQTAYNAFGITTGMFNTTTMDDVYNYLFDDEDTPPNPKKEKAERLRVNLRLVINRLKLLEKKKTELAQKARKEIADYLAAGKDERARIRVEHIIREDYLVEAMEILELYCDLLLARFGLIQSMKELDSGLAESVSTLIWAAPRLQSEVAELKIVADQLCAKYSKEYGKLCRTNQIGTVNDRLMHKLSVEAPPKILVERYLIEIAKNYNVPYEPDSVVMAEAPPGVETDLIDVGFTDDVKKGGPGRGGSGGFTAPVGGPDGTVPMPMPMPMPSANTPFSYPLPKGPSDFNGLPMGTYQAFPNIHPPQIPATPPSYESV
notes: range 768-881;range 7-283
Turning to B3, the binding result in assay [3] is “binds”.

B4: FIP-2 amino acids 302-577 (two-hybrid prey clone, fused to the Gal4 activation domain) (other, yeast;human, UniProt P04386 768-881, looked up, not shown: small tags and cut ends)
chain: ANFNQSGNIADSSLSFTFTNSSNGPNLITTQTNSQALSQPIASSNVHDNFMNNEITASKIDDGNNSKPLSPGWTDQTAYNAFGITTGMFNTTTMDDVYNYLFDDEDTPPNPKKELNLQVTSLFKELQEAHTKLSEAELMKKRLQEKCQALERKNSAIPSELNEKQELVYTNKKLELQVESMLSEIKMEQAKTEDEKSKLTVLQMTHNKLLQEHNNALKTIEELTRKESEKVDRAVLKELSEKLELAEKALASKQLQMDEMKQTIAKQEEDLETMTILRAQMEVYCSDFHAERAAREKIHEEKEQLALQLAVLLKENDAFEDGGRQSLMEMQSRHGARTSDSDQQAYLVQRGAEDRDWRQQRNIPIHSCPKCGEVLPDIDTLQIHVMDCII
notes: Prey came from the Clontech human brain library in pACT2; The clone 'included' these residues
On to B4, for which the binding result in assay [4] was “binds”.

B5: IQGAP2 amino acids 1314-1575 (two-hybrid prey clone, fused to the Gal4 activation domain) (other, yeast;human, UniProt P04386 768-881, looked up, not shown: small tags and cut ends)
chain: ANFNQSGNIADSSLSFTFTNSSNGPNLITTQTNSQALSQPIASSNVHDNFMNNEITASKIDDGNNSKPLSPGWTDQTAYNAFGITTGMFNTTTMDDVYNYLFDDEDTPPNPKKEQPGNTLTEILETPATAQQEVDHATDMVSRAMIDSRTPEEMKHSQSMIEDAQLPLEQKKRKIQRNLRTLEQTGHVSSENKYQDILNEIAKDIRNQRIYRKLRKAELAKLQQTLNALNKKAAFYEEQINYYDTYIKTCLDNLKRKNTRRSIKLDGKGEPKGAKRAKPVKYTAAKLHEKGVLLDIDDLQTNQFKNVTFDIIATEDVGIFDVRSKFLGVEMEKVQLNIQDLLQMQYEGVAVMKMFDKVKVNVNLLIYLLNKKFYGK
Consider B5, for which the binding result in assay [5] was “binds”.

The record behind these values is patent US20030055219A1 (MYRIAD GENETICS, published 2003).
